Data as given in the RNAGym collection of RNA variant scans (doi:10.1073/pnas.2313332121).

B1: TPR t1 (parent)
chain: GACCAAUCUGCCCUCAGAGCUCGAGAACAUCUUCGGAUGCAGAGGAGGCAGGCUUCGGUGGCGCGAUAGCGCCAACGUCCUCAACCUCCAAUGCAUCCCACCACAUGAUGAUGCCUGAAGAGCCUUGGUUUUUUG

Variants of: B1
Test: polymerase ribozyme fitness, log enrichment relative to wild type (log ratio); higher = more active; in vitro selection for triplet polymerase activity
In short: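 A heterodimeric triplet polymerase ribozyme had each of its subunits mutagenized by PCR into a library, which was transcribed. One round of in vitro selection, done in triplicate, annealed each library with a biotinylated primer, its partner subunit and triplets, then incubated it frozen at −7 °C before gel excision of extended constructs, streptavidin-bead capture and RT-PCR. Fitness is the logarithm of genotype enrichment relative to wild-type enrichment, based on Illumina sequencing of inputs and outputs and inverse-variance-weighted replicate averages. A base-2 logarithm is used, and genotypes were kept only with ≥10 input reads and ≥1 read per output.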

Variant	polymerase ribozyme fitness (log ratio)
C12A C15U G48C U92C U96A G122A	-4.12
C11U G51U	-3.04
C12A U33C A103C G113U C114G G127U	-6.43
C12A A27G G93A	-5.16
C12A G57U A91G U96A	-3.09
C12A G110C	-3.17
C12A G77U C82U	-1.87
C12A G61U U78A U96A	-1.84
C12A C86A U112A	0.277
C12A A26G	-1.73
C11U C80U G113C	-3.93
C12A C72U A100C U133G	-1.76
C12A C86G C123A	0.105
C12A G63C C102G C104U G113A	-7.42
C12A C64U C72U	-1.01
C12A A84U U130A	-1.77
C12A C53U C56G G135A	-2.18
C11U G19C G71A U116C A119U G122A	-6.27
C11U C53U C72U C82G C123G	-0.853
C12A C56A C80U A84U C89U A119G C123A	-0.802
C12A G42U C88G C114U	-4.43

Variant	polymerase ribozyme fitness (log ratio)
C11U G61A C88G C94G U130C	-4.74
C12A C13A C72U U92C G117A A121U C123U	-1.56
C12A G60A	-1.28
C12A C40U C89A U125A U130G	-5
C11U G71C	-0.699
C12A C76A C82A U92G	-4.72
C12A G51U G77A	-1.98
C12A G19A C22G A27C U30A C40A A46C C56A C82A U92G U109G	-8.5
C11U U32A A68C G69U C98A C99A U106A C115G G117C U132A	-6.55
C12A C20A G61U G120A	-1.21
C12A C40A C72A U130A	-2.02
C12A A29U G93U	-2.79
C12A G45C G63U	-2.35
C12A U21A C53A G71U C98U	-4.86
C11U C97U	-1.74
C11U G42A U96A	-3.35
C11U U131G	-1.44
C12A A27U G63A	-5.2
C12A C114U G135A	-3.81
C12A C28G C34A C80U C123A	-6.06
C11U G120A	0.0588

Variant	polymerase ribozyme fitness (log ratio)
C11U G120C	1.11
C11U G120U	-0.185
C12A G45C	-1.32
C12A U14A U87A C88U	-4.28
C12A C15U U21A G39A	-1.06
C11U C64U U78C	-0.654
C11U G58C G120U	0.332
C11U U54A G60A G110C A121U	-4.92
C11U C56A A91U U96C	-3.51
C12A G69C C85A G113U G127A U130C	-7.98
C11U U32G U38G U54C C99G G120C	-6.93
C11U U78G A95C G113U C114G	-4.56
C11U G47A U87A G93U G113C	-4.49
C12A C94U	-0.961
C11U C94A	-2.35
C11U U38A G120C	0.779
C12A G117A	-1.29
C11U C124A	1.7
C11U G42A	-2.48
C12A U32C U96A G122C C123G U131A	-0.725
C12A C70A C85G U116C	-4.83

Variant	polymerase ribozyme fitness (log ratio)
C12A C76U U106A	-1.29
C11U C115U	-1.61
C12A C85G U116C	-3.68
C12A C28U G60A G122A U133G	-2.67
C11U C62G U112A C123A G127U	-0.368
C12A C89G G93A	-2.86
C11U U109G	-5.84
C12A C64A	-5.04
C12A A18U C56U C79U C115U A118C U131C	-3.23
C12A G48U	-2.61
C12A G47C C70U	-0.753
C11U G45A C89G A121G	0.687
C12A G48U C98U	-2.11
C12A A84U A95C G135C	-1.09
C11U C53U C72U C82G	-1.43
C12A G61U A66C U78C C80A G107U C114U G127C	-6.6
C11U G47A G71C C86U	-0.929
C11U G48A U59A G69U C88G G135U	-3.32
C12A A74C G93A C124U U132A	-1.34
C12A C64G C98G A103U A119G	-6.93
